Source: paper PMC12148439 (2025)

Experiments:
[1] = biological target: T1, CitAGacS649 (chimeric protein: GacS649 with its PDC domain replaced by the PDC domain of CitA from K (Pseudomonas aeruginosa | Klebsiella …, UniProt P52687 55-173, amine-reactive AlexaFluor 488 label (in the MST))); test: MST; no citrate
[2] = biological target: T1, CitAGacS649 (chimeric protein: GacS649 …); test: MST; 0.01 M citrate

B1: RetSHK (histidine kinase region of the sensor histidine kinase RetS, residues 413-649) (domain or fragment)
chain: QTKAEFLAKISHEIRTPMNGVLGMTELLLGTPLSAKQRDYVQTIHSAGNELLTLINEILDISKLESGQIELDEVQFDLNALIEDCLDIFRVKAEQQRIELISFTQPQVPRVIGGDPTRLRQVVLSLLDNAFKQTEEGEILLVVALDDQGETPRLRIAVQDSGHPFDAKEREALLTAELHSGDFLSASKLGSHLGLIIARQLVRLMGGEFGIQSGSSQGTTLSLTLPLDPQQLENPTA
Question: Which results are given for B1?
Answer: Kd [1]: 11 µM; Kd [2]: 46 µM
